Laboratory results reported in patent publication US20230002489A1 (SHANGHAI EPIMAB BIOTHERAPEUTICS, published 2023).
Changes are numbered by the printed parent chain.

Tests used:
[1] = molecular target: T1, BCMA on HEK293F-BCMA-NF-kB-luc cells (clone 1H2) (UniProt Q02223 1-184, limits assumed); assay: cell-based or functional assay
T1 sequence (looked up): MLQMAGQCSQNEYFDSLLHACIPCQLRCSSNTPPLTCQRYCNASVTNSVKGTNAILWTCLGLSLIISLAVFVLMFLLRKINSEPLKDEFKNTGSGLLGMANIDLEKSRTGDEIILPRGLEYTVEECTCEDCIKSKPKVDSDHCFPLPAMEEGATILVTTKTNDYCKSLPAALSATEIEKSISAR

[2] = molecular target: T2, recombinant human BCMA extracellular domain/Fc dimer (human); assay: SPR, Biacore T200, 25 C; antibody captured on anti-mouse IgG Fc, BCMA(ECD)/Fc injected
T2 construct: also called Human BCMA (ECD); human BCMA(ECD)/Fc
Protocol: (§1) Briefly, goat anti-mouse IgG Fc antibody was directly immobilized across a biosensor chip, and antibody samples were injected over reaction matrices at a flow rate of 5 μl/min. Mouse anti-BCMA IgG test antibody was injected over the immobilized surface and captured by the immobilized anti-Fc antibodies. Human and cynomolgus BCMA(ECD)/Fc target polypeptides were then injected over the captured mouse anti-BCMA IgG surface. The association and dissociation rate constants, kₒₙ (M⁻¹s⁻¹) and koff (s⁻¹), respectively, were determined with a continuous flow rate of 30 μl/min. Rate constants were derived by making kinetic binding measurements at five different concentrations of target BCMA(ECD) polypeptide. The equilibrium dissociation constant KD (M) of the reaction between antibodies and related target proteins was then calculated from the kinetic rate constants using the formula KD=koff/kₒₙ. Kinetic constants were determined by processing and fitting the data to a 1:1 binding model using Biacore analysis software.

[3] = molecular target: T3, cynomolgus BCMA(ECD)/Fc target polypeptide (cynomolgus); assay: as above
T3 construct: extracellular domain; also called Cyno BCMA (ECD); cynoBCMA/Fc
Protocol: as §1

[4] = molecular target: T4, BCMA on NCI-H929 cells (human, UniProt Q02223 1-184); assay: cell-based or functional assay
T4 sequence (looked up): T1 sequence (looked up)

[5] = molecular target: T4, BCMA on NCI-H929 cells; assay: flow cytometry on NCI-H929 cells, MFI
[6] = molecular target: T5, human CD3 on the surface of Jurkat cells (human, UniProt P07766 23-207; P09693 23-182; P04234 22-171); assay: flow cytometry on Jurkat/NFAT/luc cells, MFI against antibody conc. (nM)
T5 construct: whole, on cells; Endogenous CD3 complex of the Jurkat T cell line; also called cell surface CD3 target on Jurkat cells; CD3-expressing Jurkat cells
T5 sequence (P07766 23-207, chain 1 of 3): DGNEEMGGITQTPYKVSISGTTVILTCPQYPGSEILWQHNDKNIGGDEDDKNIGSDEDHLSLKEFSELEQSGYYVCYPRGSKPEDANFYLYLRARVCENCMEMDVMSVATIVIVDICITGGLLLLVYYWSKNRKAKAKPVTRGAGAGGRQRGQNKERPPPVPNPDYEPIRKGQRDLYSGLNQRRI
T5 sequence (P09693 23-182, chain 2 of 3): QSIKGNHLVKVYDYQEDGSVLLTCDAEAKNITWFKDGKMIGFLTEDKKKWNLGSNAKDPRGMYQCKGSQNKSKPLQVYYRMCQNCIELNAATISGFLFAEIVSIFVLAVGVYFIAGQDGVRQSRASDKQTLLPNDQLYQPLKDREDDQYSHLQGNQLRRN
T5 sequence (P04234 22-171, chain 3 of 3): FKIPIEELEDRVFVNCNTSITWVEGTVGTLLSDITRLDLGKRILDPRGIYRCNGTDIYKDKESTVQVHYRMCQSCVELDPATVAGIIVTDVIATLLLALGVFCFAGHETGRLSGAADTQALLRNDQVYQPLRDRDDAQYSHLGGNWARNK

[7] = molecular target: T4, BCMA on NCI-H929 cells; assay: flow cytometry on NCI-H929 cells, Mean fluorescence against antibody conc. (nM)
Protocol: Binding activity of the chimeric bispecific BCMA/CD3 FIT-Ig antibodies was tested via flow cytometry with a human CD3/TCR complex transfected CHO cell line (CHOK1/CD3/TCR cells) and BCMA-expressing NCI-H929 cells. Briefly, 5×10⁵ cells in FACS buffer were seeded into 96 well plates. Cells were centrifuged at 400×g for 5 minutes and supernatants were discarded. For each well, 100 μl serially diluted FIT-Ig or FIT-Fab antibodies were then added and mixed with the cells. Following incubation for 40 minutes at 4° C., plates were washed several times to remove excess antibodies. Secondary antibody (goat anti-huIgG kappa chain specific) was then added and incubated with cells at room temperature for 20 minutes. After another round of centrifugation and washing, cells were resuspended with FACS buffer for reading on a CytoFLEX Flow Cytometer. Results were analyzed and plotted with GraphPad Prism 5.0 software.

[8] = molecular target: T6, recombinant huCD3εγ/Fc fusion protein (fusion protein heterodimer) (human); assay: SPR, Biacore T200, 25 C; antigen/Fc amine-coupled to the chip, FIT-Ig injected
T6 construct: also called huCD3/Fc dimer; heterodimeric CD3εγ/Fc fusion protein
T6 sequence (chain, as listed by the source limits assumed, chain 1 of 2): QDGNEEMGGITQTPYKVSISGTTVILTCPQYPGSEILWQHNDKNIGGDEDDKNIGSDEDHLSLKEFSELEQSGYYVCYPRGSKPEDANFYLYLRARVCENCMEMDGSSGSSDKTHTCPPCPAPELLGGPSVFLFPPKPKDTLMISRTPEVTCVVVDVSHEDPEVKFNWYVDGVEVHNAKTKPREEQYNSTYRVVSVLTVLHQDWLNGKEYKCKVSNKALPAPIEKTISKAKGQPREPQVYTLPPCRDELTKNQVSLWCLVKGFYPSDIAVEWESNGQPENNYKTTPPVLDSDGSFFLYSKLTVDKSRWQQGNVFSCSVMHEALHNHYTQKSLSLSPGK
T6 sequence (chain, as listed by the source limits assumed, chain 2 of 2): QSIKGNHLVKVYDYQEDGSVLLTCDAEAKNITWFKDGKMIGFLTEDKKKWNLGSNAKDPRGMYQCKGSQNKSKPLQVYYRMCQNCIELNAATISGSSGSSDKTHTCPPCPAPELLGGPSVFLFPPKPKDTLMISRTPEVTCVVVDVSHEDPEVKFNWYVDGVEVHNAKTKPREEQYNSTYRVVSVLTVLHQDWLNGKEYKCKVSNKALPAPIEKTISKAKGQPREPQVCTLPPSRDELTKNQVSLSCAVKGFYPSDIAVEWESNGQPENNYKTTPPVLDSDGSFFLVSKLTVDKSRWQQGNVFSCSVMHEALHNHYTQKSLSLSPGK

[9] = molecular target: T7, cynoCD3εγ/Fc fusion protein (cynomolgus monkey, UniProt Q95LI5 22-117; Q95LI7 23-113); assay: as above
T7 construct: also called cynomolgus monkey CD3ε/γ heterodimer-Fc fusion protein; not shown: linker and Fc not described for the cynomolgus construct
T7 sequence (looked up) 1: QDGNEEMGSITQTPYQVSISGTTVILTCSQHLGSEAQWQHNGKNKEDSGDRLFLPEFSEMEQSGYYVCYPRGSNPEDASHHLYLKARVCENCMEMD
T7 sequence (looked up) 2: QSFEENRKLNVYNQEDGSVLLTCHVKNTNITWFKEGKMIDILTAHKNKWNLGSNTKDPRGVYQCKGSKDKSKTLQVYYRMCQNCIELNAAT

[10] = molecular target: T3, cynomolgus BCMA(ECD)/Fc target …; assay: as above
[11] = molecular target: T5, human CD3 on the surface of Jurkat cells; assay: flow cytometry on Jurkat cells, Median-APC against antibody conc. (nM)
[12] = molecular target: T2, recombinant human BCMA extracellular …; assay: SPR, Biacore T200, 25 C; antigen/Fc amine-coupled to the chip, FIT-Ig injected

B1: mAbBCMA-002 (antibody, V domains shown)
VH: QIQLVQSGPELKKPGETVKISCKASGYSFTNYGLNWVKQAPGKGLKWMGWINTYSGHPTYVDDFKGRFAFSLETSASTAYLQINKLKNEDTSTYFCVREKDDGYRLGLDYWGQGTSVTVSS
VL: QIVLTQSPAIMSASPGEKVTMTCSASSSVSYMYWYQQRPGSSPRLWIYDTSNLVSGVPARFSGSRSGTSYSLTISGMEAEDAATYYCLQYSGYPYTFGGGTKLEIK
notes: Mouse anti-BCMA IgG from hybridoma
EC50 of inhibition of the BAFF-induced NF-kB luciferase signal in HEK293F-BCMA-NF-kB-luc cells (inhibition %; the curve reaches only about 30 % at 100 nM), unit from the axis [1]: 20.1 nM | Kd [2]: 13.8 nM | koff [2]: 0.00292 s⁻¹ | kon [2]: 212000 M⁻¹ s⁻¹ | Kd [3]: 7.55 nM | koff [3]: 0.000304 s⁻¹ | kon [3]: 40300 M⁻¹ s⁻¹ | EC50 of inhibition of BAFF-induced NF-kB phosphorylation in NCI-H929 cells (inhibition %), unit from the axis [4]: 34.8 nM

B2: HuEM0006-01-24 (antibody, human IgG1, kappa, L234A L235A, V domains shown)
VH: EVQLVQSGAEVKKPGASVKVSCKASGFSFTNYYVHWMRQAPGQGLEWMGWISPGSDNTKYNEKFKGRVTMTRDTSISTAYMELSRLRSDDTAVYYCARDDYGNYYFDYWGQGTTVTVSS
VL: DIVMTQSPDSLAVSLGERATINCKSSQSLLNARTRKNYLAWYQQKPGQPPKLLIYWASTRESGVPDRFSGSGSGTDFTLTISSLQAEDVAVYYCKQSYILRTFGGGTKVEIKR
notes: Humanized variant of mAbCD3-001; also called HuEM1006-01-24; monospecific anti-CD3 IgG
binding result [5]: no binding (tested: 100 nM) | EC50 (read off the curve) [6]: ~0.5 nM

B3: huEM0006-01-27 (antibody, human IgG1, kappa, L234A L235A, V domains shown)
VH: B2 VH with M48I, M70L, R72A
VL: B2 VL
binding result [5]: no binding (tested: 100 nM) | binding result [6]: binds

B4: FIT1006-6a-Fab (bispecific antibody, not shown: small tags and cut ends)
chain 1: not shown
chain 2: EVQLVQSGAEVKKPGASVKVSCKASGYTFTNYYVHWMRQAPGQGLEWIGWISPGSDNTKYNEKFKGRVTLTADTSISTAYMELSRLRSDDTAVYYCARDDYGNYYFDYWGQGTTVTVSSASTKGPSVFPLAPSSKSTSGGTAALGCLVKDYFPEPVTVSWNSGALTSGVHTFPAVLQSSGLYSLSSVVTVPSSSLGTQTYICNVNHKPSNTKVDKKVEPKSC
chain 3: DIQMTQSPASLSASVGETVTVTCGASENIYGALNWYQRKQGKSPQLLIYGATNLADGISSRFSGSGSGRQFSLKISSLLPDDVATYFCQSVLTTPWTFGGGTKLEIKRTVAAPSVFIFPPSDEQLKSGTASVVCLLNNFYPREAKVQWKVDNALQSGNSQESVTEQDSKDSTYSLSSTLTLSKADYEKHKVYACEVTHQGLSSPVTKSFNRGEC
notes: FIT-Fab made from FIT1006-6a by papain digestion (Fc removed)
binding result [7]: binds

B5: FIT1006-31a(D-T) (bispecific antibody, human IgG1, kappa, L234A L235A)
chain 1: not shown
chain 2: B4 chain 2 with Y27F, T28S, I48M, L70M, A72R
chain 3: DIQMTQSPSSLSASVGDRVTITCGASENIYGALNWYQQKPGKAPKLLIYGATNLATGIPSRFSGSGSGRDFTLTISSLQPEDFATYYCQSVLTTPWTFGQGTKLEIKRTVAAPSVFIFPPSDEQLKSGTASVVCLLNNFYPREAKVQWKVDNALQSGNSQESVTEQDSKDSTYSLSSTLTLSKADYEKHKVYACEVTHQGLSSPVTKSFNRGEC
EC50 (read off the curve) [6]: ~1 nM

B6: FIT1006-35a(D-T) (bispecific antibody, human IgG1, kappa, L234A L235A)
chain 1: not shown
chain 2: B4 chain 2 with Y27F, T28S
chain 3: B5 chain 3
binding result [6]: binds

B7: FIT1006-4a-Fab (bispecific antibody, not shown: small tags and cut ends)
chain 1: not shown
chain 2: B4 chain 2 with Y27F, T28S, I48M, L70M, A72R
chain 3: B4 chain 3
binding result [7]: binds

B8: FIT1006-8a-Fab (bispecific antibody, not shown: small tags and cut ends)
chain 1: not shown
chain 2: B4 chain 2 with M37V
chain 3: B4 chain 3
notes: FIT-Fab made from FIT1006-8a by papain digestion (Fc removed)
binding result [7]: binds

B9: FIT1006-31b (D-E) (bispecific antibody, human IgG1, kappa, L234A L235A)
chain 1: not shown
chain 2: EVQLVQSGAEVKKPGASVKVSCKASGYTFTNFWMHWVRQAPGQRLEWMGAFYPGNDDTYYNQKFKGRVTITADTSASTAYMELSSLRSEDMAVYYCARSGYYGSSDAMDYWGQGTTVTVSSASTKGPSVFPLAPSSKSTSGGTAALGCLVKDYFPEPVTVSWNSGALTSGVHTFPAVLQSSGLYSLSSVVTVPSSSLGTQTYICNVNHKPSNTKVDKKVEPKSC
chain 3: not shown
notes: Humanized BCMA/CD3 FIT-Ig, outer BCMA and inner CD3 Fab, no linkers
Kd [8]: 17.1 nM | koff [8]: 0.00574 s⁻¹ | kon [8]: 337000 M⁻¹ s⁻¹ | Kd [9]: 10.8 nM | koff [9]: 0.00632 s⁻¹ | kon [9]: 583000 M⁻¹ s⁻¹ | Kd [10]: 1.61 nM | koff [10]: 0.000167 s⁻¹ | kon [10]: 104000 M⁻¹ s⁻¹

B10: FIT1006-35b(D-T) (bispecific antibody, human IgG1, kappa, L234A L235A)
chain 1: not shown
chain 2: B9 chain 2
chain 3: not shown
notes: Humanized BCMA/CD3 FIT-Ig, outer BCMA and inner CD3 Fab
binding result [11]: binds

B11: FIT1006-29b(D-A) (bispecific antibody, human IgG1, kappa, L234A L235A)
chain 1: not shown
chain 2: B9 chain 2 with T30P, M48I, R67K, V68A, I70L
chain 3: not shown
notes: as for B10
Kd [8]: 16.7 nM | koff [8]: 0.00585 s⁻¹ | kon [8]: 349000 M⁻¹ s⁻¹ | Kd [12]: < 0.057 nM | koff [12]: < 5e-06 s⁻¹ | kon [12]: 87800 M⁻¹ s⁻¹ | Kd [9]: 11.2 nM | koff [9]: 0.00607 s⁻¹ | kon [9]: 541000 M⁻¹ s⁻¹ | Kd [10]: 1.09 nM | koff [10]: 0.00021 s⁻¹ | kon [10]: 192000 M⁻¹ s⁻¹

B12: FIT1006-31b(D-T) (bispecific antibody, human IgG1, kappa, L234A L235A)
chain 1: not shown
chain 2: B9 chain 2
chain 3: not shown
notes: as for B10
EC50 (read off the curve) [11]: ~3 nM | Kd [8]: 15.6 nM | koff [8]: 0.00572 s⁻¹ | kon [8]: 367000 M⁻¹ s⁻¹ | Kd [9]: 11.4 nM | koff [9]: 0.00621 s⁻¹ | kon [9]: 546000 M⁻¹ s⁻¹ | Kd [10]: 1.02 nM | koff [10]: 0.000191 s⁻¹ | kon [10]: 188000 M⁻¹ s⁻¹
